Numbered stars: 1 amine (or outer) side, 2 acyl side, 3 side chain; on linkers, the order of the positions; unused ones are H or OH. Bridge positions count the residues as written; N and C are the ends. Side chains are listed from the residue outwards. Ends that are not written are not given here. * marks the point of attachment. C20 diacid = O=C(O)CCCCCCCCCCCCCCCCCCC(=O)*; γGlu = O=C(O)[C@H](CCC(=O)[*:2])N[*:1]; AEEA = NCCOCCOCC(=O)O
T1: rat calcitonin receptor (rat, UniProt P32214 25-516)
T1 construct: whole, on cells; Used as membranes prepared from the transfected cells; also called rCTR; rCT
T1 sequence (looked up): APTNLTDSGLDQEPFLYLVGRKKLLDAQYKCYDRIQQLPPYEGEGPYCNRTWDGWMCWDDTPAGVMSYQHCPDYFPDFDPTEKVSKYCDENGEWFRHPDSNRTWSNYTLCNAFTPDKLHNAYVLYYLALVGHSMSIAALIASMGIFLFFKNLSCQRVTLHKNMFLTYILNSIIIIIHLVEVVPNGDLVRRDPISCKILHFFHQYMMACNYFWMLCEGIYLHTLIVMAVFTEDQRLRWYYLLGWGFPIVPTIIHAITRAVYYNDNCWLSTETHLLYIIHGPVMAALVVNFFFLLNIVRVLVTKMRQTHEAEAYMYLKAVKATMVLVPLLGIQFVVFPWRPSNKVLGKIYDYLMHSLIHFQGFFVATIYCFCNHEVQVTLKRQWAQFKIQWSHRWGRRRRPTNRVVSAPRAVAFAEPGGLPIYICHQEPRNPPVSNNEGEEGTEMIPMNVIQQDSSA

T2: human calcitonin receptor (human, UniProt P30988 25-474)
T2 construct: whole, on cells; Used as membranes prepared from the transfected cells; also called hCTR; hCT
T2 sequence (looked up): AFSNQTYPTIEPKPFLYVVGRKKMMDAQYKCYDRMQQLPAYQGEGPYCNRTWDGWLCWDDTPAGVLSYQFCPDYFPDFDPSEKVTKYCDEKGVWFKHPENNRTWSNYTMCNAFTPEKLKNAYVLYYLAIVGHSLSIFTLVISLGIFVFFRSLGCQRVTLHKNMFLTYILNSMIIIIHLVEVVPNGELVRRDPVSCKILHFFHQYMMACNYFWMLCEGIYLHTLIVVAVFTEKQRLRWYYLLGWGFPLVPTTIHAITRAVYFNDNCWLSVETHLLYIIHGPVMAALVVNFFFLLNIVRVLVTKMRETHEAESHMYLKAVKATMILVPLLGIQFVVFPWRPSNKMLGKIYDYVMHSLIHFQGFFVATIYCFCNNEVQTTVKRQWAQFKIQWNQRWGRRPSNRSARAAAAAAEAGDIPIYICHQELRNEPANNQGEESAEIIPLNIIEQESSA


Legend:
rat calcitonin receptor [1] = molecular target: T1, rat calcitonin receptor; assay: SPA competition with 125I-calcitonin, membranes with rat calcitonin receptor (Assay VIII)
[2] = molecular target: T2, human calcitonin receptor; assay: ratio of binding IC50 at human calcitonin receptor to IC50 at human amylin receptor (reference)
Protocol: The resulting pellet was resuspended, homogenized and centrifuged (20.000 rpm, 15 min) in a buffer containing 20 mM Na-HEPES and 0.1 mM EDTA (pH 7.4, buffer 2). The resulting pellet was resuspended in buffer 2 and protein concentration was measured (BCA protein Assay, Pierce). The homogenate was kept cold during the whole procedure. The membranes were kept at −80° C. until use. The assay was performed in a 384 well Optiplate (PerkinElmer) in a total volume of 40 ul. Membranes were mixed with SPA beads. Final concentration of membranes 35 ng/μL final and SPA beads was 0.05 mg/well. Test-compounds were dissolved in DMSO and further diluted in assay buffer (50 mM Hepes, pH 7.4, 1 mM CaCl2, 5 mM MgCl₂, 0.1% OA and 0.02% Tween20). […] The final mixture was incubated with shaking at 400 rpm for 120 min at 25° C. prior to centrifugation (1500 rpm, 10 min). Samples were analyzed on TopCounter™ (Packard). The IC₅₀ was calculated using (one site binding competition analysis) GraphPad Prism5 as a measure of receptor affinity.
Membranes were prepared in the following way; the cells were rinsed with PBS and incubated with Versene for approximately 5 min before harvesting. The cells were flushed with PBS and the cell-suspension was centrifuged for 5 min at 1000 rpm. Cells were homogenized (Ultrathurrax) in a buffer containing 20 mM Na-HEPES and 10 mM EDTA (pH 7.4) and centrifuged at 20.000 rpm for 15 min. The resulting pellet was resuspended, homogenized and centrifuged (20.000 rpm, 15 min) in a buffer containing 20 mM Na-HEPES and 0.1 mM EDTA (pH 7.4, buffer 2). The resulting pellet was resuspended in buffer 2 and protein concentration was measured (BCA protein Assay, Pierce). The homogenate was kept cold during the whole procedure. The membranes were kept at −80° C. until use. Assay was performed in a 384 well Optiplate (PerkinElmer) in a total volume of 40 ul. Membranes were mixed with SPA beads.

rat calcitonin receptor [3] = molecular target: T1, rat calcitonin receptor; assay: ratio of binding IC50 at rat calcitonin receptor to IC50 at rat amylin receptor (reference)

Row | Binder | IC50 (rat calcitonin receptor [1]) [µM] | Ratio hCT/hAmylin binding [2] | Ratio rCT/rAmylin binding (rat calcitonin receptor [3])
1 | K([AEEA-γGlu-C20 diacid])CNTATCATQRLARFLRHSSPNFGAIPSSTPVGSNTY-NH2 (disulfide 2-7; N-terminus assumed; SMILES CC[C@H](C)[C@H](NC(=O)[C@H](C)NC(=O)CNC(=O)[C@H](Cc1ccccc1)NC(=O)[C@H](CC(N)=O)NC(=O)[C@@H]1CCCN1C(=O)[C@H](CO)NC(=O)[C@H](CO)NC(=O)[C@H](Cc1c[nH]cn1)NC(=O)[C@H](CCCNC(=N)N)NC(=O)[C@H](CC(C)C)NC(=O)[C@H](Cc1ccccc1)NC(=O)[C@H](CCCNC(=N)N)NC(=O)[C@H](C)NC(=O)[C@H](CC(C)C)NC(=O)[C@H](CCCNC(=N)N)NC(=O)[C@H](CCC(N)=O)NC(=O)[C@@H](NC(=O)[C@H](C)NC(=O)[C@@H]1CSSC[C@H](NC(=O)[C@@H](N)CCCCNC(=O)COCCOCCNC(=O)CC[C@H](NC(=O)CCCCCCCCCCCCCCCCCCC(=O)O)C(=O)O)C(=O)N[C@@H](CC(N)=O)C(=O)N[C@@H]([C@@H](C)O)C(=O)N[C@@H](C)C(=O)N[C@@H]([C@@H](C)O)C(=O)N1)[C@@H](C)O)C(=O)N1CCC[C@H]1C(=O)N[C@@H](CO)C(=O)N[C@@H](CO)C(=O)N[C@H](C(=O)N1CCC[C@H]1C(=O)N[C@H](C(=O)NCC(=O)N[C@@H](CO)C(=O)N[C@@H](CC(N)=O)C(=O)N[C@H](C(=O)N[C@@H](Cc1ccc(O)cc1)C(N)=O)[C@@H](C)O)C(C)C)[C@@H](C)O, Analogue of human amylin; disulfide and C-terminal amide as told for h-amylin; also called compound 64) | 0.128 | 126 | 64.7
2 | K([AEEA-γGlu-C20 diacid])CNTATCATQRLARFLRHSSPNFGAIPSSTNVGSNTY-NH2 (disulfide 2-7; N-terminus assumed; SMILES CC[C@H](C)[C@H](NC(=O)[C@H](C)NC(=O)CNC(=O)[C@H](Cc1ccccc1)NC(=O)[C@H](CC(N)=O)NC(=O)[C@@H]1CCCN1C(=O)[C@H](CO)NC(=O)[C@H](CO)NC(=O)[C@H](Cc1c[nH]cn1)NC(=O)[C@H](CCCNC(=N)N)NC(=O)[C@H](CC(C)C)NC(=O)[C@H](Cc1ccccc1)NC(=O)[C@H](CCCNC(=N)N)NC(=O)[C@H](C)NC(=O)[C@H](CC(C)C)NC(=O)[C@H](CCCNC(=N)N)NC(=O)[C@H](CCC(N)=O)NC(=O)[C@@H](NC(=O)[C@H](C)NC(=O)[C@@H]1CSSC[C@H](NC(=O)[C@@H](N)CCCCNC(=O)COCCOCCNC(=O)CC[C@H](NC(=O)CCCCCCCCCCCCCCCCCCC(=O)O)C(=O)O)C(=O)N[C@@H](CC(N)=O)C(=O)N[C@@H]([C@@H](C)O)C(=O)N[C@@H](C)C(=O)N[C@@H]([C@@H](C)O)C(=O)N1)[C@@H](C)O)C(=O)N1CCC[C@H]1C(=O)N[C@@H](CO)C(=O)N[C@@H](CO)C(=O)N[C@H](C(=O)N[C@@H](CC(N)=O)C(=O)N[C@H](C(=O)NCC(=O)N[C@@H](CO)C(=O)N[C@@H](CC(N)=O)C(=O)N[C@H](C(=O)N[C@@H](Cc1ccc(O)cc1)C(N)=O)[C@@H](C)O)C(C)C)[C@@H](C)O, Analogue of human amylin; disulfide and C-terminal amide as told for h-amylin; also called compound 82) | 0.143 | 140 | 87
3 | K([AEEA-γGlu-C20 diacid])CNTATCATQRLANFLRHSSPNFGAIPSSTNVGRNTY-NH2 (disulfide 2-7; N-terminus assumed; SMILES CC[C@H](C)[C@H](NC(=O)[C@H](C)NC(=O)CNC(=O)[C@H](Cc1ccccc1)NC(=O)[C@H](CC(N)=O)NC(=O)[C@@H]1CCCN1C(=O)[C@H](CO)NC(=O)[C@H](CO)NC(=O)[C@H](Cc1c[nH]cn1)NC(=O)[C@H](CCCNC(=N)N)NC(=O)[C@H](CC(C)C)NC(=O)[C@H](Cc1ccccc1)NC(=O)[C@H](CC(N)=O)NC(=O)[C@H](C)NC(=O)[C@H](CC(C)C)NC(=O)[C@H](CCCNC(=N)N)NC(=O)[C@H](CCC(N)=O)NC(=O)[C@@H](NC(=O)[C@H](C)NC(=O)[C@@H]1CSSC[C@H](NC(=O)[C@@H](N)CCCCNC(=O)COCCOCCNC(=O)CC[C@H](NC(=O)CCCCCCCCCCCCCCCCCCC(=O)O)C(=O)O)C(=O)N[C@@H](CC(N)=O)C(=O)N[C@@H]([C@@H](C)O)C(=O)N[C@@H](C)C(=O)N[C@@H]([C@@H](C)O)C(=O)N1)[C@@H](C)O)C(=O)N1CCC[C@H]1C(=O)N[C@@H](CO)C(=O)N[C@@H](CO)C(=O)N[C@H](C(=O)N[C@@H](CC(N)=O)C(=O)N[C@H](C(=O)NCC(=O)N[C@@H](CCCNC(=N)N)C(=O)N[C@@H](CC(N)=O)C(=O)N[C@H](C(=O)N[C@@H](Cc1ccc(O)cc1)C(N)=O)[C@@H](C)O)C(C)C)[C@@H](C)O, Analogue of human amylin; disulfide and C-terminal amide as told for h-amylin; also called compound 78) | 0.0906 | 60.7 | 69.9
4 | K([AEEA-γGlu-C20 diacid])CNTATCATQRLANFLRHSSPNFGAIPSSTNVGHNTY-NH2 (disulfide 2-7; N-terminus assumed; SMILES CC[C@H](C)[C@H](NC(=O)[C@H](C)NC(=O)CNC(=O)[C@H](Cc1ccccc1)NC(=O)[C@H](CC(N)=O)NC(=O)[C@@H]1CCCN1C(=O)[C@H](CO)NC(=O)[C@H](CO)NC(=O)[C@H](Cc1c[nH]cn1)NC(=O)[C@H](CCCNC(=N)N)NC(=O)[C@H](CC(C)C)NC(=O)[C@H](Cc1ccccc1)NC(=O)[C@H](CC(N)=O)NC(=O)[C@H](C)NC(=O)[C@H](CC(C)C)NC(=O)[C@H](CCCNC(=N)N)NC(=O)[C@H](CCC(N)=O)NC(=O)[C@@H](NC(=O)[C@H](C)NC(=O)[C@@H]1CSSC[C@H](NC(=O)[C@@H](N)CCCCNC(=O)COCCOCCNC(=O)CC[C@H](NC(=O)CCCCCCCCCCCCCCCCCCC(=O)O)C(=O)O)C(=O)N[C@@H](CC(N)=O)C(=O)N[C@@H]([C@@H](C)O)C(=O)N[C@@H](C)C(=O)N[C@@H]([C@@H](C)O)C(=O)N1)[C@@H](C)O)C(=O)N1CCC[C@H]1C(=O)N[C@@H](CO)C(=O)N[C@@H](CO)C(=O)N[C@H](C(=O)N[C@@H](CC(N)=O)C(=O)N[C@H](C(=O)NCC(=O)N[C@@H](Cc1c[nH]cn1)C(=O)N[C@@H](CC(N)=O)C(=O)N[C@H](C(=O)N[C@@H](Cc1ccc(O)cc1)C(N)=O)[C@@H](C)O)C(C)C)[C@@H](C)O, Analogue of human amylin; disulfide and C-terminal amide as told for h-amylin; also called compound 76) | 0.0389 | 80 | 56.8

Source: patent US20140087995A1 (published 2014)
